Experimental data: patent US11396522B2, “Bis-acetal-based substrates for imaging exo-glycosidase activity” (ALECTOS THERAPEUTICS INC., priority 2017, dated 2022)

Experiments:
Format in all cases: biochemical, human
[1] = substrate: CC(=O)N[C@H]1[C@H](O[C@@H](OCCOCCn2cc(CNC(=O)c3ccc(/N=N/c4ccc(N(C)C)cc4)cc3)nn2)[C@@](C)(Br)C(=O)NCCNc2cccc3c(S(=O)(=O)O)cccc23)O[C@H](CO)[C@@H](O)[C@@H]1O; assay: In vitro kinetic assay with hOGA; conditions: other: PBS, 37° C., recombinant hOGA
Method: (§1) For some experiments, fluorescence kinetic assays were performed using a Varian Cary Eclipse Spectrophotometer set for 335/493 nm excitation/emission wavelengths. Slits were set at 10 nm and the detector was set on Medium voltage. Enzymatic reactions with human OGA were carried out in PBS at 37° C. and were started by addition of hOGA (WT, Full-length, expressed in E. coli. as previously described) in a total volume of 160 μL (Starna sub-micro Fluorometer cuvette). For measurements of rates using different concentrations of substrates, a hOGA concentration of 100 nM was used. For hOGA titration, 25 μM of Glyco-BABS were added to various concentration of hOGA. […] EDANS standard curve was established using endpoint fluorescence measurements of serial dilutions of EDANS in the relevant buffer using the same instrument parameters. Inner-Filter effect measurements were carried out in cuvette by measuring fluorescence of several concentrations of EDANS in presence of various concentrations of GlcNAc-BABS. Kinetics with Glc-BABS and GBA enzymes (GBA1 and GBA3 purchased from R&D Systems), kinetics with GALC (R&D systems) and Gal-BABS, pH stability, quenching efficiency, some inner-filter effect experiments and lysates experiments were carried out using a Molecular Devices SpectraMax i3× plate reader. […]

[2] = substrate: CC(=O)N[C@H]1[C@H](O[C@@H](OCCOCCn2cc(CNC(=O)c3ccc(/N=N/c4ccc(N(C)C)cc4)cc3)nn2)[C@@](C)(O)C(=O)NCCNc2cccc3c(S(=O)(=O)O)cccc23)O[C@H](CO)[C@@H](O)[C@@H]1O; assay: In vitro kinetic assay with hOGA; conditions: other: PBS, 37° C., recombinant hOGA
Method: as §1

[3] = substrate: CN(C)c1ccc(/N=N/c2ccc(C(=O)NCc3cn(CCOCCOC(CC(=O)NCCNc4cccc5c(S(=O)(=O)O)cccc45)O[C@@H]4O[C@H](CO)[C@@H](O)[C@H](O)[C@H]4O)nn3)cc2)cc1; assay: In vitro kinetic assay with GBA1; conditions: other: 20 nM GBA1, initial rates

B1: human O-GlcNAcase (hOGA) (Homo sapiens) (protein)
chain: MVQKESQATLEERESELSSNPAASAGASLEPPAAPAPGEDNPAGAGGAAVAGAAGGARRFLCGVVEGFYGRPWVMEQRKELFRRLQKWELNTYLYAPKDDYKHRMFWREMYSVEEAEQLMTLISAAREYEIEFIYAISPGLDITFSNPKEVSTLKRKLDQVSQFGCRSFALLFDDIDHNMCAADKEVFSSFAHAQVSITNEIYQYLGEPETFLFCPTEYCGTFCYPNVSQSPYLRTVGEKLLPGIEVLWTGPKVVSKEIPVESIEEVSKIIKRAPVIWDNIHANDYDQKRLFLGPYKGRSTELIPRLKGVLTNPNCEFEANYVAIHTLATWYKSNMNGVRKDVVMTDSEDSTVSIQIKLENEGSDEDIETDVLYSPQMALKLALTEWLQEFGVPHQYSSRQVAHSGAKASVVDGTPLVAAPSLNATTVVTTVYQEPIMSQGAALSGEPTTLTKEEEKKQPDEEPMDMVVEKQEETDHKNDNQILSEIVEAKMAEELKPMDTDKESIAESKSPEMSMQEDCISDIAPMQTDEQTNKEQFVPGPNEKPLYTAEPVTLEDLQLLADLFYLPYEHGPKGAQMLREFQWLRANSSVVSVNCKGKDSEKIEEWRSRAAKFEEMCGLVMGMFTRLSNCANRTILYDMYSYVWDIKSIMSMVKSFVQWLGCRSHSSAQFLIGDQEPWAFRGGLAGEFQRLLPIDGANDLFFQPPPLTPTSKVYTIRPYFPKDEASVYKICREMYDDGVGLPFQSQPDLIGDKLVGGLLSLSLDYCFVLEDEDGICGYALGTVDVTPFIKKCKISWIPFMQEKYTKPNGDKELSEAEKIMLSFHEEQEVLPETFLANFPSLIKMDIHKKVTDPSVAKSMMACLLSSLKANGSRGAFCEVRPDDKRILEFYSKLGCFEIAKMEGFPKDVVILGRSL
notes: started by addition of hOGA (WT, Full-length, expressed in E. coli. as previously described); made in house; host or cells: E. coli
- kcat/Km [1]: 263 M⁻¹ s⁻¹
- kcat/Km [2]: 519 M⁻¹ s⁻¹

B2: GBA1 (Homo sapiens) (protein)
chain: ARPCIPKSFGYSSVVCVCNATYCDSFDPPTFPALGTFSRYESTRSGRRMELSMGPIQANHTGTGLLLTLQPEQKFQKVKGFGGAMTDAAALNILALSPPAQNLLLKSYFSEEGIGYNIIRVPMASCDFSIRTYTYADTPDDFQLHNFSLPEEDTKLKIPLIHRALQLAQRPVSLLASPWTSPTWLKTNGAVNGKGSLKGQPGDIYHQTWARYFVKFLDAYAEHKLQFWAVTAENEPSAGLLSGYPFQCLGFTPEHQRDFIARDLGPTLANSTHHNVRLLMLDDQRLLLPHWAKVVLTDPEAAKYVHGIAVHWYLDFLAPAKATLGETHRLFPNTMLFASEACVGSKFWEQSVRLGSWDRGMQYSHSIITNLLYHVVGWTDWNLALNPEGGPNWVRNFVDSPIIVDITKDTFYKQPMFYHLGHFSKFIPEGSQRVGLVASQKNDLDAVALMHPDGSAVVVVLNRSSKDVPLTIKDPAVGFLETISPGYSIHTYLWRRQ
notes: purchased R&D Systems
- kcat/Km [3]: 130 M⁻¹ s⁻¹
